The text below walks through data of patent US20140087995A1 (published 2014).

Experiment [1] deals with T1, human calcitonin receptor (human, UniProt P30988 25-474).
T1 construct: whole, on cells; also called hCTR; hCT
T1 sequence (looked up): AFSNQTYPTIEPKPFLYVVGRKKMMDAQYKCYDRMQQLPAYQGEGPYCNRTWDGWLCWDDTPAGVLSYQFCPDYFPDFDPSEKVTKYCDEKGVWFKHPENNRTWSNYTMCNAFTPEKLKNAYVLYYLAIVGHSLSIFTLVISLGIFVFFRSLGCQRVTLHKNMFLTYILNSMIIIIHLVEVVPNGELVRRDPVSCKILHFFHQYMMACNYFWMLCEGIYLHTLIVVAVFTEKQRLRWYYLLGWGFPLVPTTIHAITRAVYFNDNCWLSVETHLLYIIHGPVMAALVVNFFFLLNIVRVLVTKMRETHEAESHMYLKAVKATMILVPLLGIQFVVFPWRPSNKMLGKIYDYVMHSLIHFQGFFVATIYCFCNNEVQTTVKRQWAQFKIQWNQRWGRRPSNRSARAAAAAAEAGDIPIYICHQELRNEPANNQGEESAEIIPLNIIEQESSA
Briefly: SPA radioligand competition (125I-calcitonin), membranes of BHK cells with human calcitonin receptor. In outline: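 BHK hCTR membranes 35 ng/μL + SPA beads 0.05 mg/well; buffer 50 mM Hepes pH 7.4, 1 mM CaCl2, 5 mM MgCl₂, 0.1% OA, 0.02% Tween20. 120 min, 25° C., shaking. Scintillation count; IC50 by one-site binding competition.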
Background: In a radioligand displacement assay an active substance lowers the binding of a labelled ligand.

The target of experiment [2] is T1, human calcitonin receptor. In words: ratio of IC50 at human calcitonin receptor to IC50 at human amylin receptor (SPA competition assays). Summed up:
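IC₅₀ values were derived by one-site competition analysis of SPA counts. Cell membranes (35 ng/μL) with SPA beads were incubated with test compounds for 120 min at 25° C in Hepes buffer, pH 7.4, containing CaCl2, MgCl₂, OA and Tween20.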

Numbered stars: 1 amine (or outer) side, 2 acyl side, 3 side chain; on linkers, the order of the positions; unused ones are H or OH. Bridge positions count the residues as written; N and C are the ends. Side chains are listed from the residue outwards. Ends that are not written are not given here. * marks the point of attachment. C20 diacid = O=C(O)CCCCCCCCCCCCCCCCCCC(=O)*; γGlu = O=C(O)[C@H](CCC(=O)[*:2])N[*:1]; AEEA = NCCOCCOCC(=O)O

B1: N^ε1-[2-[2-[2-[[(4S)-4-carboxy-4-(19-carboxynonadecanoylamino)butanoyl]amino]ethoxy]ethoxy]acetyl]-[Ser14,Arg17,Pro21,Pro27,Pro31]-h-amylin (peptide)
peptide: K([AEEA-γGlu-C20 diacid])CNTATCATQRLASFLRHSSPNFGAIPSSTPVGSNTY-NH2
modifications: disulfide 2-7; N-terminus assumed
SMILES: CC[C@H](C)[C@H](NC(=O)[C@H](C)NC(=O)CNC(=O)[C@H](Cc1ccccc1)NC(=O)[C@H](CC(N)=O)NC(=O)[C@@H]1CCCN1C(=O)[C@H](CO)NC(=O)[C@H](CO)NC(=O)[C@H](Cc1c[nH]cn1)NC(=O)[C@H](CCCNC(=N)N)NC(=O)[C@H](CC(C)C)NC(=O)[C@H](Cc1ccccc1)NC(=O)[C@H](CO)NC(=O)[C@H](C)NC(=O)[C@H](CC(C)C)NC(=O)[C@H](CCCNC(=N)N)NC(=O)[C@H](CCC(N)=O)NC(=O)[C@@H](NC(=O)[C@H](C)NC(=O)[C@@H]1CSSC[C@H](NC(=O)[C@@H](N)CCCCNC(=O)COCCOCCNC(=O)CC[C@H](NC(=O)CCCCCCCCCCCCCCCCCCC(=O)O)C(=O)O)C(=O)N[C@@H](CC(N)=O)C(=O)N[C@@H]([C@@H](C)O)C(=O)N[C@@H](C)C(=O)N[C@@H]([C@@H](C)O)C(=O)N1)[C@@H](C)O)C(=O)N1CCC[C@H]1C(=O)N[C@@H](CO)C(=O)N[C@@H](CO)C(=O)N[C@H](C(=O)N1CCC[C@H]1C(=O)N[C@H](C(=O)NCC(=O)N[C@@H](CO)C(=O)N[C@@H](CC(N)=O)C(=O)N[C@H](C(=O)N[C@@H](Cc1ccc(O)cc1)C(N)=O)[C@@H](C)O)C(C)C)[C@@H](C)O
notes: also called compound 73
Turning to B1, the IC50 in experiment [1] was found to be 5.38 nM. The “Ratio hCT/hAmylin binding” value in experiment [2] is 51.7.

B2: N^ε1-[2-[2-[2-[[(4S)-4-carboxy-4-(19-carboxynonadecanoylamino)butanoyl]amino]ethoxy]ethoxy]acetyl]-[Thr14,Arg17,Pro21,Pro27,Pro31]-h-amylin (peptide)
peptide: K([AEEA-γGlu-C20 diacid])CNTATCATQRLATFLRHSSPNFGAIPSSTPVGSNTY-NH2
modifications: disulfide 2-7; N-terminus assumed
SMILES: CC[C@H](C)[C@H](NC(=O)[C@H](C)NC(=O)CNC(=O)[C@H](Cc1ccccc1)NC(=O)[C@H](CC(N)=O)NC(=O)[C@@H]1CCCN1C(=O)[C@H](CO)NC(=O)[C@H](CO)NC(=O)[C@H](Cc1c[nH]cn1)NC(=O)[C@H](CCCNC(=N)N)NC(=O)[C@H](CC(C)C)NC(=O)[C@H](Cc1ccccc1)NC(=O)[C@@H](NC(=O)[C@H](C)NC(=O)[C@H](CC(C)C)NC(=O)[C@H](CCCNC(=N)N)NC(=O)[C@H](CCC(N)=O)NC(=O)[C@@H](NC(=O)[C@H](C)NC(=O)[C@@H]1CSSC[C@H](NC(=O)[C@@H](N)CCCCNC(=O)COCCOCCNC(=O)CC[C@H](NC(=O)CCCCCCCCCCCCCCCCCCC(=O)O)C(=O)O)C(=O)N[C@@H](CC(N)=O)C(=O)N[C@@H]([C@@H](C)O)C(=O)N[C@@H](C)C(=O)N[C@@H]([C@@H](C)O)C(=O)N1)[C@@H](C)O)[C@@H](C)O)C(=O)N1CCC[C@H]1C(=O)N[C@@H](CO)C(=O)N[C@@H](CO)C(=O)N[C@H](C(=O)N1CCC[C@H]1C(=O)N[C@H](C(=O)NCC(=O)N[C@@H](CO)C(=O)N[C@@H](CC(N)=O)C(=O)N[C@H](C(=O)N[C@@H](Cc1ccc(O)cc1)C(N)=O)[C@@H](C)O)C(C)C)[C@@H](C)O
notes: also called compound 75
For the molecule B2, the half-inhibitory concentration (IC50) in experiment [1] turned out to be 60.9 nM. In experiment [2], the “Ratio hCT/hAmylin binding” value turned out to be 91.4.

B3: N^ε1-[(4S)-4-carboxy-4-(19-carboxynonadecanoylamino)butanoyl]-[Ala14,Arg17,Pro21,Pro27,His34]-h-amylin (peptide)
peptide: K([γGlu-C20 diacid])CNTATCATQRLAAFLRHSSPNFGAIPSSTNVGHNTY-NH2
modifications: disulfide 2-7; N-terminus assumed
SMILES: CC[C@H](C)[C@H](NC(=O)[C@H](C)NC(=O)CNC(=O)[C@H](Cc1ccccc1)NC(=O)[C@H](CC(N)=O)NC(=O)[C@@H]1CCCN1C(=O)[C@H](CO)NC(=O)[C@H](CO)NC(=O)[C@H](Cc1c[nH]cn1)NC(=O)[C@H](CCCNC(=N)N)NC(=O)[C@H](CC(C)C)NC(=O)[C@H](Cc1ccccc1)NC(=O)[C@H](C)NC(=O)[C@H](C)NC(=O)[C@H](CC(C)C)NC(=O)[C@H](CCCNC(=N)N)NC(=O)[C@H](CCC(N)=O)NC(=O)[C@@H](NC(=O)[C@H](C)NC(=O)[C@@H]1CSSC[C@H](NC(=O)[C@@H](N)CCCCNC(=O)CC[C@H](NC(=O)CCCCCCCCCCCCCCCCCCC(=O)O)C(=O)O)C(=O)N[C@@H](CC(N)=O)C(=O)N[C@@H]([C@@H](C)O)C(=O)N[C@@H](C)C(=O)N[C@@H]([C@@H](C)O)C(=O)N1)[C@@H](C)O)C(=O)N1CCC[C@H]1C(=O)N[C@@H](CO)C(=O)N[C@@H](CO)C(=O)N[C@H](C(=O)N[C@@H](CC(N)=O)C(=O)N[C@H](C(=O)NCC(=O)N[C@@H](Cc1c[nH]cn1)C(=O)N[C@@H](CC(N)=O)C(=O)N[C@H](C(=O)N[C@@H](Cc1ccc(O)cc1)C(N)=O)[C@@H](C)O)C(C)C)[C@@H](C)O
notes: also called compound 93
Take B3: the concentration for half-maximal inhibition (IC50) in experiment [1] was determined as 17.8 nM. Also, the “Ratio hCT/hAmylin binding” value in experiment [2] turned out to be 101.

B4: N^ε1-[(4S)-4-carboxy-4-(19-carboxynonadecanoylamino)butanoyl]-[Arg17,Pro21,Pro27,Arg34]-h-amylin (peptide)
peptide: K([γGlu-C20 diacid])CNTATCATQRLANFLRHSSPNFGAIPSSTNVGRNTY-NH2
modifications: disulfide 2-7; N-terminus assumed
SMILES: CC[C@H](C)[C@H](NC(=O)[C@H](C)NC(=O)CNC(=O)[C@H](Cc1ccccc1)NC(=O)[C@H](CC(N)=O)NC(=O)[C@@H]1CCCN1C(=O)[C@H](CO)NC(=O)[C@H](CO)NC(=O)[C@H](Cc1c[nH]cn1)NC(=O)[C@H](CCCNC(=N)N)NC(=O)[C@H](CC(C)C)NC(=O)[C@H](Cc1ccccc1)NC(=O)[C@H](CC(N)=O)NC(=O)[C@H](C)NC(=O)[C@H](CC(C)C)NC(=O)[C@H](CCCNC(=N)N)NC(=O)[C@H](CCC(N)=O)NC(=O)[C@@H](NC(=O)[C@H](C)NC(=O)[C@@H]1CSSC[C@H](NC(=O)[C@@H](N)CCCCNC(=O)CC[C@H](NC(=O)CCCCCCCCCCCCCCCCCCC(=O)O)C(=O)O)C(=O)N[C@@H](CC(N)=O)C(=O)N[C@@H]([C@@H](C)O)C(=O)N[C@@H](C)C(=O)N[C@@H]([C@@H](C)O)C(=O)N1)[C@@H](C)O)C(=O)N1CCC[C@H]1C(=O)N[C@@H](CO)C(=O)N[C@@H](CO)C(=O)N[C@H](C(=O)N[C@@H](CC(N)=O)C(=O)N[C@H](C(=O)NCC(=O)N[C@@H](CCCNC(=N)N)C(=O)N[C@@H](CC(N)=O)C(=O)N[C@H](C(=O)N[C@@H](Cc1ccc(O)cc1)C(N)=O)[C@@H](C)O)C(C)C)[C@@H](C)O
notes: also called compound 79
As to B4, the IC50 in experiment [1] came out at 36.4 nM. Moreover, the “Ratio hCT/hAmylin binding” value in experiment [2] was 46.1.

B5: N^ε1-[(4S)-4-carboxy-4-(19-carboxynonadecanoylamino)butanoyl]-[Ala14,Arg17,Pro21,Pro27,Pro34]-h-amylin (peptide)
peptide: K([γGlu-C20 diacid])CNTATCATQRLAAFLRHSSPNFGAIPSSTNVGPNTY-NH2
modifications: disulfide 2-7; N-terminus assumed
SMILES: CC[C@H](C)[C@H](NC(=O)[C@H](C)NC(=O)CNC(=O)[C@H](Cc1ccccc1)NC(=O)[C@H](CC(N)=O)NC(=O)[C@@H]1CCCN1C(=O)[C@H](CO)NC(=O)[C@H](CO)NC(=O)[C@H](Cc1c[nH]cn1)NC(=O)[C@H](CCCNC(=N)N)NC(=O)[C@H](CC(C)C)NC(=O)[C@H](Cc1ccccc1)NC(=O)[C@H](C)NC(=O)[C@H](C)NC(=O)[C@H](CC(C)C)NC(=O)[C@H](CCCNC(=N)N)NC(=O)[C@H](CCC(N)=O)NC(=O)[C@@H](NC(=O)[C@H](C)NC(=O)[C@@H]1CSSC[C@H](NC(=O)[C@@H](N)CCCCNC(=O)CC[C@H](NC(=O)CCCCCCCCCCCCCCCCCCC(=O)O)C(=O)O)C(=O)N[C@@H](CC(N)=O)C(=O)N[C@@H]([C@@H](C)O)C(=O)N[C@@H](C)C(=O)N[C@@H]([C@@H](C)O)C(=O)N1)[C@@H](C)O)C(=O)N1CCC[C@H]1C(=O)N[C@@H](CO)C(=O)N[C@@H](CO)C(=O)N[C@H](C(=O)N[C@@H](CC(N)=O)C(=O)N[C@H](C(=O)NCC(=O)N1CCC[C@H]1C(=O)N[C@@H](CC(N)=O)C(=O)N[C@H](C(=O)N[C@@H](Cc1ccc(O)cc1)C(N)=O)[C@@H](C)O)C(C)C)[C@@H](C)O
notes: also called compound 94
Regarding B5, the IC50 in experiment [1] turned out to be 6.86 nM. In experiment [2], the “Ratio hCT/hAmylin binding” value is 46.3.

B6: N^ε1-[(4S)-4-carboxy-4-(19-carboxynonadecanoylamino)butanoyl]-[Arg14,Arg17,Pro21,Pro27]-h-amylin (peptide)
peptide: K([γGlu-C20 diacid])CNTATCATQRLARFLRHSSPNFGAIPSSTNVGSNTY-NH2
modifications: disulfide 2-7; N-terminus assumed
SMILES: CC[C@H](C)[C@H](NC(=O)[C@H](C)NC(=O)CNC(=O)[C@H](Cc1ccccc1)NC(=O)[C@H](CC(N)=O)NC(=O)[C@@H]1CCCN1C(=O)[C@H](CO)NC(=O)[C@H](CO)NC(=O)[C@H](Cc1c[nH]cn1)NC(=O)[C@H](CCCNC(=N)N)NC(=O)[C@H](CC(C)C)NC(=O)[C@H](Cc1ccccc1)NC(=O)[C@H](CCCNC(=N)N)NC(=O)[C@H](C)NC(=O)[C@H](CC(C)C)NC(=O)[C@H](CCCNC(=N)N)NC(=O)[C@H](CCC(N)=O)NC(=O)[C@@H](NC(=O)[C@H](C)NC(=O)[C@@H]1CSSC[C@H](NC(=O)[C@@H](N)CCCCNC(=O)CC[C@H](NC(=O)CCCCCCCCCCCCCCCCCCC(=O)O)C(=O)O)C(=O)N[C@@H](CC(N)=O)C(=O)N[C@@H]([C@@H](C)O)C(=O)N[C@@H](C)C(=O)N[C@@H]([C@@H](C)O)C(=O)N1)[C@@H](C)O)C(=O)N1CCC[C@H]1C(=O)N[C@@H](CO)C(=O)N[C@@H](CO)C(=O)N[C@H](C(=O)N[C@@H](CC(N)=O)C(=O)N[C@H](C(=O)NCC(=O)N[C@@H](CO)C(=O)N[C@@H](CC(N)=O)C(=O)N[C@H](C(=O)N[C@@H](Cc1ccc(O)cc1)C(N)=O)[C@@H](C)O)C(C)C)[C@@H](C)O
notes: also called compound 83
In the case of B6, the concentration for half-maximal inhibition (IC50) in experiment [1] is 137 nM. Besides, the “Ratio hCT/hAmylin binding” value in experiment [2] stood at 146.

The term IC50 denotes the point on the concentration scale where inhibition reaches its midpoint.
